Source: US7556950 (Takeda / Millennium, dated 2009)

Target: the molecule itself
Assay: analytical size-exclusion chromatography; self-association (homodimer) of the purified catalytic domain

B1: recombinant catalytic domain of human phosphodiesterase 4-D3 (PDE4-D3), residues 253-580 of SEQ. ID No. 1, after removal of the N-terminal 6x-histidine tag … (enzyme)
chain: GAMDPTEQEDVLAKELEDVNKWGLHVFRIAELSGNRPLTVIMHTIFQERDLLKTFKIPVDTLITYLMTLEDHYHADVAYHNNIHAADVVQSTHVLLSTPALEAVFTDLEILAAIFASAIHDVDHPGVSNQFLINTNSELALMYNDSSVLENHHLAVGFKLLQEENCDIFQNLTKKQRQSLRKMVIDIVLATDMSKHMNLLADLKTMVETKKVTSSGVLLLDNYSDRIQVLQNMVHCADLSNPTKPLQLYRQWTDRIMEEFFRQGDRERERGMEISPMCDKHNASVEKSQVGFIDYIVHPLWETWADLVHPDAQDILDTLEDNREWYQSTIPQSP
notes: The limits 24-357 come from the claims, which define the protein of the Rolipram complex this way; The purified protein was buffer-exchanged with a 2-molar excess of the small molecule Rolipram; Expressed in Hi5 insect cells; also called PDE4D3 catalytic domain; purified PDE4-D3
B1: binds.
